Results as given in patent publication US20150203575A1 (Genentech, published 2015).

What was measured:
Assay in all cases: cDNA expression library screen with PILRα-AP supernatant on COS7 transfectants; positive clones further analysed by FACS
ETBR expressed on cells = molecular target: T1, ETBR expressed on cells (human, UniProt P24530 27-442)
T1 construct: Clone of the Origene human cDNA library; also called Endothelin receptor type B
T1 sequence: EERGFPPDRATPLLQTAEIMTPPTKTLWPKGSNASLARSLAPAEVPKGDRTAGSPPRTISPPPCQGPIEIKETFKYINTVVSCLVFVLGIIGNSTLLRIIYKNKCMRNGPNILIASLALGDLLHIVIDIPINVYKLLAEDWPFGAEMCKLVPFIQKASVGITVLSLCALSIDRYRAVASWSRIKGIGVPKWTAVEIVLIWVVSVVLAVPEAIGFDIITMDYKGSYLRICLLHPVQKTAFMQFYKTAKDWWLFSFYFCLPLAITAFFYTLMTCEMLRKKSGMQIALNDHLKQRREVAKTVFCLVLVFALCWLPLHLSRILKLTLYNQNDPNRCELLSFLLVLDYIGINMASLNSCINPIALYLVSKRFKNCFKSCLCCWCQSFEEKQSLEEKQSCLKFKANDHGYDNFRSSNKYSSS
Procedure: (§1) COS7 cells were plated in a 24-well format and transfected with 10 ul of Origene library DNA (Origene, human DNA library containing 20 k genes) per well with Fugene 6 Reagent. Two days later, cells were incubated with human or mouse PILRα-Ap supernatants for 45 min at room temperature (RT). Then cells were fixed with 4% PFA for 15 min at RT. After removing fixation buffer, cells were blocked with 100 mM Glycine in HBS (20 mM Hepes, PH7.2, 150 mM NaCl) for 15 min at RT. Cells were then rinsed and incubated in HBS for 90 min at 65° C. HBS was removed and Western Blue Substrate (Promega) was added and color was developed for 30 min to 1 hr.

BR3 expressed on cells = molecular target: T2, BR3 expressed on cells (human, UniProt Q96RJ3 1-184)
T2 construct: Clone of the Origene human cDNA library
T2 sequence: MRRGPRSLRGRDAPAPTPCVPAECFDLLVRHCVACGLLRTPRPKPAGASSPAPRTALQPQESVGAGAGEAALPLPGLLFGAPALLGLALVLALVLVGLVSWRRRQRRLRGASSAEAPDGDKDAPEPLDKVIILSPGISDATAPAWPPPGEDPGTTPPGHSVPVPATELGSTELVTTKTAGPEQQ
Procedure: as §1

MAG expressed on cells = molecular target: T3, MAG expressed on cells (human, UniProt P20916 20-626)
T3 construct: Clone of the Origene human cDNA library; also called Myelin associated glycoprotein; SIGLEC4A
T3 sequence: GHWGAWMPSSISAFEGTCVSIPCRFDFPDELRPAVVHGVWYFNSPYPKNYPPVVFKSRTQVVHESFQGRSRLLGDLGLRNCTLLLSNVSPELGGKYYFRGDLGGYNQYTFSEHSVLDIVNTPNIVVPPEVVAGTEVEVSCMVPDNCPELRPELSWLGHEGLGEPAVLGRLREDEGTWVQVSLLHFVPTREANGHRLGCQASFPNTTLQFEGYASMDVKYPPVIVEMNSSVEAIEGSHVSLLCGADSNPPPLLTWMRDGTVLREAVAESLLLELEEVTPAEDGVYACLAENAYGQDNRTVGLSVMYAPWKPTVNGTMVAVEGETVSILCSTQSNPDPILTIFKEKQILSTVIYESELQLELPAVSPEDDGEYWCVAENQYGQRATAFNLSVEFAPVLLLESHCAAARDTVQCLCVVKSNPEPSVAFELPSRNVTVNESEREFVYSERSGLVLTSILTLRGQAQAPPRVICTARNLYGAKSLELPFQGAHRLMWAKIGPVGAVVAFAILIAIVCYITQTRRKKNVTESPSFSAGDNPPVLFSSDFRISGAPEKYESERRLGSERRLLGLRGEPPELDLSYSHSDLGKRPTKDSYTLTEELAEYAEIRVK
Procedure: as §1

[1] = molecular target: T4, IL-2Ra expressed on cells (human, UniProt P01589 22-272)
T4 construct: Clone of the Origene human cDNA library; also called Interleukin 2 receptor alpha
T4 sequence: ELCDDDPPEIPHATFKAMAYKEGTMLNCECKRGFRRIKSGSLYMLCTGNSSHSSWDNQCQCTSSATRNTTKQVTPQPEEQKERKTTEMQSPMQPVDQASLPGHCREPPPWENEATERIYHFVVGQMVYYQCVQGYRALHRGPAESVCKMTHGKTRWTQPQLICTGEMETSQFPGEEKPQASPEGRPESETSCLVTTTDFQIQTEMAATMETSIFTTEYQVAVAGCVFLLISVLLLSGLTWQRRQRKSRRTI
Procedure: as §1

[2] = molecular target: T5, FceRII expressed on cells (human, UniProt P06734 1-321)
T5 construct: Clone of the Origene human cDNA library; also called FcRII
T5 sequence: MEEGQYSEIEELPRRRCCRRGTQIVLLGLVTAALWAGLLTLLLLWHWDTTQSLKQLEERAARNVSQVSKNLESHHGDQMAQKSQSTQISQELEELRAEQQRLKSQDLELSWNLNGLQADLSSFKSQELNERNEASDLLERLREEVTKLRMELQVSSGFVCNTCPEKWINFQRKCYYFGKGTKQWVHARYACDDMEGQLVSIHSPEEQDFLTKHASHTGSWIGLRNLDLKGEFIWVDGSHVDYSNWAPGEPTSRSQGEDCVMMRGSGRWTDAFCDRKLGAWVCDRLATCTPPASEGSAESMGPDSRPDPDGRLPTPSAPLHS
Procedure: as §1

[3] = molecular target: T6, LRRTM4 expressed on cells (human, UniProt Q86VH4 31-590)
T6 construct: Clone of the Origene human cDNA library; also called Leucine rich repeat transmembrane neuronal 4
T6 sequence (Q86VH4 31-590 limits assumed): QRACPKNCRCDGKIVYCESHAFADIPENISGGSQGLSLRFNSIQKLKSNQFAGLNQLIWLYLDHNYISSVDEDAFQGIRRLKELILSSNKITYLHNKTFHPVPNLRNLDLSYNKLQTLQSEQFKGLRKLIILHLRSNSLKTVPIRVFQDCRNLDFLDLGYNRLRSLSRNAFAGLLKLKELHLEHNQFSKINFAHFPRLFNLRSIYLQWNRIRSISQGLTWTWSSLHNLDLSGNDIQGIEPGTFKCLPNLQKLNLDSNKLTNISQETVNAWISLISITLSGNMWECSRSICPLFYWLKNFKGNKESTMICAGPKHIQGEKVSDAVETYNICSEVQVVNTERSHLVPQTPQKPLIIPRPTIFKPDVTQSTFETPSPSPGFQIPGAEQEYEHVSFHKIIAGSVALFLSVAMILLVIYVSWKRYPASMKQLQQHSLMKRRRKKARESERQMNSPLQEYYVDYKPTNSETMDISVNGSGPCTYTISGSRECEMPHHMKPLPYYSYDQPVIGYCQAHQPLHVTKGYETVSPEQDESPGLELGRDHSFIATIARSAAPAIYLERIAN
Procedure: as §1

Measured: binding result

B1: hPILRα-AP (other)
chain: QPSGSTGSGPSYLYGVTQPKHLSASMGGSVEIPFSFYYPWELATAPDVRISWRRGHFHRQSFYSTRPPSIHKDYVNRLFLNWTEGQKSGFLRISNLQKQDQSVYFCRVELDTRSSGRQQWQSIEGTKLSITQAVTTTTQRPSSMTTTWRLSSTTTTTGLRVTQGKRRSDSWHISLET
notes: Used as culture supernatant; also called human PILRα-AP; Alkaline phosphatase (AP)-tagged PILRα construct; not shown: C-terminal alkaline phosphatase (AP) tag
binds: all assays above
